{"source": "the DeepSol protein solubility set", "test": "soluble on expression in E. coli; label from the status in PepcDB or PDB records", "data": [{"sequence": "MGSDKIHHHHHHMDKIYVLDTNVLLQDPLSIFSFETNEVVIPAVVLEEVDSKKRYMDEVGRNARYVSKLIDKFREIGKLHESIPLENGGTFRIELNHRSFVQLQDIFVEKTNDNRILAVAKNLSLEEQEKEDGKSVILVSKDVLVRVKADAIGLKAEDYLSDRVIEVENIYSGFLEGYISKEQLDYFYEKGELPLSEIANHPFYPNQFVVMKDALGGSSSALGIVDHLGKKVKKLIFHNEQVWGIRPRNVQQIMGLELLLREDIPLVTLTGKAGTGKTLLALASGLMQTEDLGLYKKLLVARPIVPVGKDIGYLPGEKEEKLRPWMQPIFDNLEYLFNTKKPGELDAILAGMGSIEVEALTYIRGRSIPDQFIIIDEAQNLTKHEVKTILTRVGEKSKIVLMGDPQQIDHPYLDEYNNGLTYVVEKFKEQRISGHVKFVKGERSNLAQLAADLL", "values": [{"measurement": "soluble on expression in E. coli", "value": "not soluble"}]}, {"sequence": "MGSDKIHHHHHHMTIEMKNNKNNNCNFPTLRFPEFSGEWKKDIIGNVISVKSEKYNPHSNRTEFICVELESISQGTGELLETFNSAEQKSIKNKFSPGTVLFGKLRPYLRKFYLPYFEGVCSSEIWVMRSNKIEPAFLYSFIQTPYFISLANQSSGSKMPRADWGLIETSKIAYPPNSAERVKIGKFLKLIDERIATQNKIIAHLESLIKGLTNQLLIPNSNWQPTTIGQVLTINPGKDYKHLKEGNIPVYGTGGYMLSVNDYLYDGESVCIGRKGTINKPIFLTGKFWTIDTLFYTSNFNSLLPRFGYYLFKTIDWLKYNEASGVPSLSKVSIEKIHISLPSLAIQNSICRLLDSIYDKLALEESVLNNHQTQKAFILQQMFI", "values": [{"measurement": "soluble on expression in E. coli", "value": "not soluble"}]}, {"sequence": "SNAMADGIYGSFENLKKHAGTMTLEAYMRFSAKLSEAKDEMGTKEYEVFTKELKKLTNAKLAYGDANGNIDYDALSPEKREEMKTVSMGLQPYFDKLNGHKSSKEVLTQEEFDRYMEALMTHEIVRVKTKSTGAIKVEEVPEAYKERFMKAEQFMEYVDEKVR", "values": [{"measurement": "soluble on expression in E. coli", "value": "soluble"}]}, {"sequence": "MSQNSLPSEVSNATIDKELYYHGLLPSEDVRQLLSNNGDFLLRSSEPEPGSPRTHILSVMFNNRLDDINSIKHFVVNFVDGKYFINDKMSFPSIQKMLGTYQRNNTEIKEGCMLVNPIRRQFWELEHDQITIHKKLGEGAFGEVSSGVMKFKKGMKTVQVAIKQVKLDKTGKAKIKDFLAEARTMRKLGHQNIIKFYGVGVLQEPLYLVMELAVNGALDSFLKKNEDLSVDKKTEMILQAAWGLEYIHGKPMLHRDIAARNCLYTDGKVKISDFGLTRNGTVYQIKPNTKSPIRWLAIETIKTMICSEKTDVWAYGVLCWEIFNNAAEPYPGMKPADVATQVANGYRMPPYPHAQAEIQTMMARCNAENPNDRPSMAEIAEILQRVTETPRPNFTAIAKKEAEELLLMNSVTTKTTARRKKSNVKLPKGMSKN", "values": [{"measurement": "soluble on expression in E. coli", "value": "not soluble"}]}, {"sequence": "SHMTPDIILQRTGIDVRAVEQGDDAWHKLRLGVITASEVHNVIAKPRSGKKWPDMKMSYFHTLLAEVCTGVAPEVNAKALAWGKQYENDARTLFEFTSGVNVTESPIIYRDESMRTACSPDGLCSDGNGLELKCPFTSRDFMKFRLGGFEAIKSAYMAQVQYSMWVTRKNAWYFANYDPRMKREGLHYVVIERDEKYMASFDEIVPEFIEKMDEALAEIGFVFGEQWR", "values": [{"measurement": "soluble on expression in E. coli", "value": "soluble"}]}, {"sequence": "MEHFDVAIIGLGPAGSALARKLAGKMQVIALDKKHQCGTEGFSKPCGGLLAPDAQRSFIRDGLTLPVDVIANPQIFSVKTVDVAASLTRNYQRSYININRHAFDLWMKSLIPASVEVYHDSLCRKIWREDDKWHVIFRADGWEQHITARYLVGADGANSMVRRHLYPDHQIRKYVAIQQWFAEKHPVPFYSCIFDNAITDCYSWSISKDGYFIFGGAYPMKDGQTRFTTLKEKMSAFQFQFGKAVKSEKCTVLFPSRWQDFVCGKDNAFLIGEAAGFISASSLEGISYALDSAEILRAVFLKQPEKSNAAYWRATHKLRLKLFGKIVKSRCLTAPALRKWIMRSGVAHIPQLKDYPTRFTSPTSRM", "values": [{"measurement": "soluble on expression in E. coli", "value": "not soluble"}]}, {"sequence": "MSLYTLYSFGTPNGFKPTIMLEELTQPYTIELIDITQGEQFNPDFLKISPNNKIPVLHDQTNDFYLMESVAILQYLAEKHRQFLPETTKEKYTIIQWCYFQAAHIGPMFGQFGHFHRYAQERVPYAMTRYADESMRLLGVMEKQLVKAPFIGGSNYTIADMAIWPWIWCFQFIYGQTIDAKQFPSLMSWYQRISERQAVRATLTAYGREGHHHHHH", "values": [{"measurement": "soluble on expression in E. coli", "value": "soluble"}]}]}
